According to article PMC10864358, “Structural and mechanistic characterization of bifunctional heparan sulfate N-deacetylase-N-sulfotransferase 1” (Nature Communications, 2024):

Tests used:
[1] = target: T1, solubilized recombinant NDST1 (residues 79-882), bifunctional heparan sulfate … (human, UniProt P52848); test: cell-based or functional assay
[2] = target: T1, solubilized recombinant NDST1 (residues …); test: differential scanning fluorimetry; NDST1 (1 µg) in 20 µL PBS pH 7.4 with 20X Sypro Orange, with 10.8 µM nAb; 25 to 95 °C; details: both partners purified
[3] = target: T2, biotinylated C-terminal Avitagged NDST1 (Homo sapiens, UniProt P52848, biotin on the C-terminal Avitag (BirA biotin-protein ligase)); test: SPR; biotinylated NDST1 immobilised on a BiotinCAP sensor chip (Biacore T200), nanobody titrated from 10 µM, 25 °C, 20 mM MES pH 6.5, 100 mM NaCl, 0.05% Tween-20; steady-state responses fitted to a 1:1 model; details: both partners purified
T2 construct: human N-deacetylase-N-sulfotransferase 1 (NDST1) with a C-terminal Avitag, made by PCR with tailed primers and subcloned into pOMNIBac; also called biotinylated NDST1; source: insect cells (baculovirus, pOMNIBac), purified; biotinylated with the BirA kit, then a final round of SEC; not shown: Avitag, C-terminal, kept

[4] = target: T1, solubilized recombinant NDST1 (residues …); test: cell-based or functional assay; remark: listed apart in the source
[5] = target: T2, biotinylated C-terminal Avitagged NDST1; test: BLI; biotinylated NDST1 immobilised on Octet SA biosensors, nanobodies in PBS-T, 25 °C, 1000 rpm; steady-state responses fitted to a 1:1 model; details: both partners purified

T1 sequence (P52848 79-882): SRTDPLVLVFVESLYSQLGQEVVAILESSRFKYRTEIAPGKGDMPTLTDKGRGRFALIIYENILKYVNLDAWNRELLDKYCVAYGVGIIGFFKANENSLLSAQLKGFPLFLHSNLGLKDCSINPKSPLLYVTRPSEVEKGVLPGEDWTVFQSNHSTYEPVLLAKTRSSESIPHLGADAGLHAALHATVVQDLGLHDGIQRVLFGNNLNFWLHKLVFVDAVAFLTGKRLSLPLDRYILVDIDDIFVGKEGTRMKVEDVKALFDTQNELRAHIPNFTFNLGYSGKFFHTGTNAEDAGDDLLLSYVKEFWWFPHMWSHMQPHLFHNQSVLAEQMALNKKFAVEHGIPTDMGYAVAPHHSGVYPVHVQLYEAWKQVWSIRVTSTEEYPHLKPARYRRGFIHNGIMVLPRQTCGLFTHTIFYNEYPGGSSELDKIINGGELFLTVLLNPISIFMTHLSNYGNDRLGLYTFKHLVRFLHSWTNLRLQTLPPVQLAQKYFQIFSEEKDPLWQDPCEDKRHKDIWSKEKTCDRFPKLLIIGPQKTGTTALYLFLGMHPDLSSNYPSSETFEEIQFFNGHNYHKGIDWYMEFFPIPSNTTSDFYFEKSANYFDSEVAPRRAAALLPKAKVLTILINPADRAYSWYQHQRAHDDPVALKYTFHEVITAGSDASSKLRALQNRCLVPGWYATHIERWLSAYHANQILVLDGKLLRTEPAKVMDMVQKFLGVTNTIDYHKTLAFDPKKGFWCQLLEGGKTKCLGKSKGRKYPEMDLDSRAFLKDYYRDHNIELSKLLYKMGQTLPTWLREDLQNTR
T2 sequence (P52848 79-882): as above

B1: nAb5 (VHH)
VHH: QVQLVESGGGLVQAGGSLRLSCAASGRTFSSYVMGWFRQAPGKEREFVAAISWSGGTTDYAGSVKGRFTISRDNDRKTMYLEMNDLKPEDTALYYCNFKETWPRTGDYWGPGTQVTVSS
notes: llama VHH from an NDST1-immunized library, selected by phage display; also called anti-NDST1 nanobody 5; source: E. coli WK6, periplasmic extract, purified (HisTrap, SEC)
KI of inhibition of NDST1 activity (fluorometric coupled enzyme assay with Sult1a1-K65E-R68G, K5 substrate; Morrison equation) [1]: 3300 nM | stabilization of NDST1 thermal denaturation with 10.8 µM nAb [2]: ~2.6 °C | Kd [3]: 570 nM

B2: nAb7 (VHH)
VHH: QVQLVESGGGSVQAGGSLRLSCAASGFNVDDYAIGWFRQSPGKEREGVSCIGGDGTTYYENSVKGRFTVSSDKRDNTVYLQMNNLRPEDTAIYFCAADRSKYCVGKYFSTPSQYDFWGRGTHVTVSS
notes: llama VHH from an NDST1-immunized library, selected by phage display; Long CDR3 loop R98-F116; also called anti-NDST1 nanobody 7; source: E. coli WK6, periplasmic extract, purified (HisTrap, SEC)
fold decrease in kcat/KM of NDST1 with respect to K5 with 30 µM nAb7, against NDST1 alone (0.06 vs 0.18 min^-1 mg^-1 mL) [4]: ~3 fold | KI of inhibition of NDST1 activity (fluorometric coupled enzyme assay with Sult1a1-K65E-R68G, K5 substrate; Morrison equation) [1]: 240 nM | stabilization of NDST1 thermal denaturation with 10.8 µM nAb [2]: ~4.4 °C | Kd [5]: 120 nM | Kd [3]: 220 nM

B3: nAb13 (VHH)
VHH: QVQLVESGGGLVQSGGSLRLSCTASRRASSTIGWFRQAPGKEREFVAGINWSLETATYQDSIKDRFTISRDNANNTVYLQMNSLKPEDTAVYYCAASPYRVMGDTTLYPYWGQGTQVTVSS
notes: in PDB 8CHS nAb13 is modeled only as an all-Calpha chain derived from the nAb7 structure; llama VHH from an NDST1-immunized library, selected by phage display; also called anti-NDST1 nanobody 13; source: E. coli WK6, periplasmic extract, purified (HisTrap, SEC)
fold enhancement of NDST1 activity in the coupled enzyme assay [4]: ~2 fold | kcat of NDST1 with respect to K5 with 30 µM nAb13, against NDST1 alone (0.26 min^-1 vs 0.14 min^-1) [4]: ~86% | EC50 of enhancement of NDST1 activity (fluorometric coupled enzyme assay with Sult1a1-K65E-R68G, K5 substrate) [1]: 450 nM | stabilization of NDST1 thermal denaturation with 10.8 µM nAb [2]: ~1.9 °C | Kd [5]: 240 nM | Kd [3]: 530 nM

B4: nAb1 (VHH)
VHH: QVQLVESGGGLVQAGGSLRLSCAASDRTFTTYAMAWFRRAPPGKEREFVASIRWDGFGTYYTDSVKGRFTISRDSAKNEAYLQMNSLRPEDTGVYYCAAGLLFGNTKGYDHWGQGTQVTVSS
notes: llama VHH from an NDST1-immunized library, selected by phage display; also called anti-NDST1 nanobody 1; source: E. coli WK6, periplasmic extract, purified (HisTrap, SEC)
Kd [5]: 2670 nM | Kd [3]: 2370 nM

B5: nAb6 (VHH)
VHH: QVQLVESGGDLVQPGGSLRLSCAASKTIFVISDMGWYRQAPGKQRELVAMITSGGTTNYADSVKGRFTISRDNTQNTVWLQMNSLKPEDTAVYYCYARVERWRPTDSWGQGTQVTVSS
notes: llama VHH from an NDST1-immunized library, selected by phage display; also called anti-NDST1 nanobody 6; source: E. coli WK6, periplasmic extract, purified (HisTrap, SEC)
Kd [5]: 470 nM | Kd [3]: 840 nM
